This is an account of results in patent publication US20090286727A1 (Ablynx, published 2009).

This experiment concerns the target T1, human IL6 (human, UniProt P05231 30-212, biotinylated in the ELISA (bio-IL6); site not given).
T1 construct: In the ELISA it was biotinylated and captured on a neutravidin-coated plate; In Biacore it was on a CM5 sensor chip; also called bio-IL6; biotinylated human IL6
Description: SPR, Biacore 3000, human IL6 on CM5 chip, Nanobody 3.75 nM to 2 uM. The method, then:
Binding of VH4 Nanobodies to different antigens was evaluated by surface plasmon resonance on a Biacore 3000 instrument. […]
For orientation: SPR reads the build-up and loss of mass on a sensor chip optically.

B1: VH4 16.1 (VHH)
VHH: QVQLQESGPGLVKPSQTLSLTCTVSGGSITTYRYYWSWIRQPPGKGLEWMGAIAYSGSTYYSPSLKSRTSISRDTTKNQFTLQLSSVTPEDTAVYYCARGRLGSWYYELNEYDYWGQGTQVTVSS
notes: The two are tied only by the clone number; Llama VH4-class Nanobody, purified by IMAC as a His6-tagged protein; also called anti-IL6 VH4 Nanobody 16.1; VH4 cl16; not shown: His6 tag from vector pAX51
Regarding B1, binding was characterised by a dissociation constant (Kd) of 19 nM, the koff (usually the rate constant with which the complex falls apart) amounted to 0.00036 s⁻¹ and the kon (commonly the rate constant with which the complex forms) turned out to be 19000 M⁻¹ s⁻¹.

B2: VH4 20.1 (VHH)
VHH: QVQLQESGPGLVKPSQTLSLTCTVSGGSITTYNYAWSWIRQPPGKGLEWMGVIAYDGSTYYSPSLKSRTSISRDTSKNQFSLQLSSVTPEDTAVYYCARGTVGSWYDEFPPRYDYWGQGTQVTVSS
notes: The two are tied only by the clone number; also called anti-IL6 VH4 Nanobody 20.1; VH4 Nanobody 20.1; not shown: His6 tag from vector pAX51
For the molecule B2, binding was put at a Kd of 46 nM, the koff is 0.0018 s⁻¹ and the kon amounted to 40000 M⁻¹ s⁻¹.
